# According to patent US20200087363A1 (IMMATICS BIOTECHNOLOGIES, published 2020):
# Biological target: T1, HLA-B*44:05 (human)
# T1 construct: also called peptide-receptive MHC class I molecule
# Assay: UV peptide exchange, anti-b2m ELISA
# Outline: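 Peptide-receptive HLA-B*44:05 monomers after UV-induced exchange were diluted 100-fold and captured on streptavidin-coated plates for 1 h at 37 °C. Bound complexes were detected with 2 µg/ml HRP-anti-β2m (1 h, 37 °C) and TMB, read at 450 nm. β2m signal reflects peptide-stabilized complex yield.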
row,peptide exchange yield [%],Binder
1,> 75,RELARVVTL
2,> 75,NEIDIHSIYF
3,20 to 50,AEVGDIIKV
4,50 to 75,AELDSKILAL
5,50 to 75,AESLFREAL
6,50 to 75,EEINELNRMI
7,20 to 50,GEKATMQNL
8,50 to 75,SEATHIITI
9,50 to 75,TEQSLYYRQW
10,> 75,QELLDFTNW
11,50 to 75,AEQQQQQMY
12,50 to 75,TEAQRLDCW
13,20 to 50,AEIEADRSYQ
14,50 to 75,REYEDGPLSL
15,20 to 50,RLNEHPSNNW
16,50 to 75,SEYVHSSFSGF
17,> 75,QEVAQVASAIL
18,> 75,GEGTLRLSW
19,> 75,TEENGFWYL
20,50 to 75,EEAVRSVAF
21,50 to 75,NEVDGEYRY
22,50 to 75,AEADLSYTWDF
23,10 to 20,ALEEGGGYIF
24,50 to 75,AELVGPVIPQDW
25,20 to 50,SEYVHSSF

row,peptide exchange yield [%],Binder
1,50 to 75,SESDLVNFI
2,50 to 75,RENDFEPKF
3,20 to 50,AELEGALQKA
4,50 to 75,QTLKAMVQAW
5,20 to 50,SELGLPKEV
6,50 to 75,KEVDPASNTY
7,50 to 75,AEYSVHKI
8,50 to 75,QEVGEITNL
9,50 to 75,QETLAESTW
10,> 75,AEYSVHKITSTF
11,50 to 75,FETEQALRL
12,50 to 75,QEISAHRTEF
13,50 to 75,KEMDPSRQSY
14,50 to 75,AEAEEAMKRL
15,50 to 75,TEGGTQKTF
16,20 to 50,RETEDYSKQAL
17,50 to 75,AEEGPSVPKIY
18,50 to 75,SESPIRISV
19,20 to 50,QEVAQVASA
20,50 to 75,SESALQTVI
21,20 to 50,EDNPSGHTY
22,50 to 75,TEVHSSPAQRW
23,50 to 75,EEYAGQITL
24,50 to 75,TEFSNHINL
25,50 to 75,AEEKAAVTSL

row,peptide exchange yield [%],Binder
1,50 to 75,REIENGNSF
2,20 to 50,TEGAVEVKY
3,> 75,QESVHVASYYW
4,50 to 75,AETSYVKVLEY
5,50 to 75,VEVGDRTDW
6,20 to 50,SESMVESKF
7,> 75,TEFHMQFSY
8,50 to 75,KEDNPSGHTY
9,50 to 75,AENIKKFLY
10,50 to 75,KEFGLDSVEL
11,10 to 20,LETSCGSSTAY
12,20 to 50,EEYQDSFERY
13,50 to 75,SESSSAFQF
14,> 75,MEVDPIGHLYIF
15,50 to 75,AEMLGSVVGNW
16,50 to 75,AEVGDIIKVHF
17,50 to 75,HEDPSGSLHL
18,50 to 75,DENIQKFIW
19,50 to 75,ALSPVPSHW
20,20 to 50,VEMTGKHQL
21,50 to 75,SESKVFQLL
22,50 to 75,AEVTLNNTI
23,50 to 75,SEIDEKVTDL
